The target of this assay is Flt-1 (VEGFR-1, fms-like tyrosine kinase-1) of wild-type mice (WF) (mouse) (UniProt P35969). Briefly: cell-based or functional assay.
UniProt P35969, sequence (P35969 23-1333 S1181G): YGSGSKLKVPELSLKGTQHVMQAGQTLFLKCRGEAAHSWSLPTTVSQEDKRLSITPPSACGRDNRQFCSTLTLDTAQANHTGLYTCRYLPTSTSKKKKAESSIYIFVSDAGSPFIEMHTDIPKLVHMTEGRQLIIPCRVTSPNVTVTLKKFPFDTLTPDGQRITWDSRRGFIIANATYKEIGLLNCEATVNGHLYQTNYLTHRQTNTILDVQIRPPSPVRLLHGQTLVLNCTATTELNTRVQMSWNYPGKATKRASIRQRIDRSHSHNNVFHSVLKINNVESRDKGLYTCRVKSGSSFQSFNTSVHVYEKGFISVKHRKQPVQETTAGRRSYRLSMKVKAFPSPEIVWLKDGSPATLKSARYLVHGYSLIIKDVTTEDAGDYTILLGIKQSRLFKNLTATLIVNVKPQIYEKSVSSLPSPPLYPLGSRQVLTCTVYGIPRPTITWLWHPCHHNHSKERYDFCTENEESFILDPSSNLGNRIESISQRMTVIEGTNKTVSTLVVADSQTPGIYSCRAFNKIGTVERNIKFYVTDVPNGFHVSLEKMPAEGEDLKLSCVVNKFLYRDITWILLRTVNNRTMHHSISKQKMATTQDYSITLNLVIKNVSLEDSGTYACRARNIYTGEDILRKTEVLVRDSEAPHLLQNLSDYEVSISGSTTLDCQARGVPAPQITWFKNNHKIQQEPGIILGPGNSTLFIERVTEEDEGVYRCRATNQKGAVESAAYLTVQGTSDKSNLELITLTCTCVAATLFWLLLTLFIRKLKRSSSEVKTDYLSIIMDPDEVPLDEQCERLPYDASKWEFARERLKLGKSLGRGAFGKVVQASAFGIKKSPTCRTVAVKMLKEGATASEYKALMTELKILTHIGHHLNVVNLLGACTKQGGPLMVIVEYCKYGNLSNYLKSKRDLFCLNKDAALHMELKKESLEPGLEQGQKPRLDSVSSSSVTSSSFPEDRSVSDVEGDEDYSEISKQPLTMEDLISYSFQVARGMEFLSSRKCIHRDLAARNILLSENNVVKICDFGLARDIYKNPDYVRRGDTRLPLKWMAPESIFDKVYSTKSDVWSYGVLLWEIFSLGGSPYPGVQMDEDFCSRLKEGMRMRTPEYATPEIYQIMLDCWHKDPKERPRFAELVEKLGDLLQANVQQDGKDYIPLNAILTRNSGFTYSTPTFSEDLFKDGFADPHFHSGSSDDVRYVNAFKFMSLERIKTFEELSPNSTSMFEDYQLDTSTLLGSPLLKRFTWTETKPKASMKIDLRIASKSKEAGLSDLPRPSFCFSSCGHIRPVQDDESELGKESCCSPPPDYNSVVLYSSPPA

For the substance VEGF (R&D社製) (ligand), the MMP-9誘導 (肺組織培養, ゼラチン基質ザイモグラフィー) came out at 40 ng/mL.
